Measured values taken from the supplement of paper PMC10201428.
± gives the standard deviation of the averaged measurements.

Tests used:
[1] = system: VchCAST RNA-guided transposition machinery (E. coli BL21(DE3) host, lacZ target); assay: relative integration efficiency (T-LR orientation) vs wild-type transposon end (log2 (normalized fold change)); transposon end mutated: right end (5 bp flank + 75 bp right end); higher = more efficient transposition
In short: (§1)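 Barcode abundances in input plasmids and in genomic integration junctions were obtained by PCR amplification and Illumina sequencing. These came from E. coli BL21(DE3) co-transformed with a T7-driven effector plasmid and a pUC57 donor carrying 1549 left-end or 1849 right-end transposon variants, then plated with 0.1 mM IPTG at 37°C for 18 h. Relative integration efficiency is the output/input fold change, normalised to reference barcodes and log-transformed.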

[2] = system: VchCAST RNA-guided transposition machinery (E. coli BL21(DE3) host, lacZ target); assay: relative integration efficiency (T-RL orientation) vs wild-type transposon end (log2 (normalized fold change)); transposon end mutated: right end (5 bp flank + 75 bp right end); higher = more efficient transposition
In short: as §1

| Sequence | relative integration efficiency (log2) [1] | relative integration efficiency (log2) [2] |
| --- | --- | --- |
| ACATTTGTTGATAAAACCATAAAATGATTTTAAGAAACCATAATCTGAAATAATCACACCCATAAATTGATATTGCCTCTGATCATAGTCAGACCAACATTGCTACGACCCGTATTCGCACCGACAC | -1.78 ± 0.24 | -3.13 ± 0.069 |
| ACATTTGTTGATAAAACCATAAAATGATTTTTAGAAACCATAATCTGAAATTATCACACCCATAAATTGATATTGCCTCTGATCATAGTCAGACCAACATTGCTACGACCCGTATTCGCACCGACAC | -2.56 ± 0.33 | -2.97 ± 0.17 |
| ACATTTGTTGATAAAACCATACGTTGATTTTAAGAAACCATACGCTGAAATAATCACACCCATAAATTGATATTGCCTCTGATCATAGTCAGACCAACATTGCTACGACCCGTATTCGCACCGACAC | -3.87 ± 0.6 | -6.06 ± 0.18 |
| ACATTTGTTGATAAAACCATACGTTGATTTTACCACCCATAAATTGATAATTATCACACCCATAAATTGATATTGCCTCTGATCATAGTCAGACCAACATTGCTACGACCCGTATTCGCACCGACAC | -2.98 ± 0.21 | -2.65 ± 0.17 |
| ACATTTGTTGATAAAACCATACGTTGATTTTACGAAACCATACGCTGAAATAATCACACCCATAAATTGATATTGCCTCTGATCATAGTCAGACCAACATTGCTACGACCCGTATTCGCACCGACAC | -3.87 ± 1.2 | -5.63 ± 0.18 |
| ACATTTGTTGATAACACCATAAAATGATAATTACACCCATAAATTGATAATTATCACACCCATAAATTGATATTGCCTCTGATCATAGTCAGACCAACATTGCTACGACCCGTATTCGCACCGACAC | -0.747 ± 0.13 | -0.41 ± 0.018 |
| ACATTTGTTGATAACCAACGCCCCGTCGCCGGCACAAACGCCCGGTCGCCGGCTCAACAAACGCCCGGTCGCGGTACTCTGATCATAGTCAGACCAACATTGCTACGACCCGTATTCGCACCGACAC | -6.65 ± 2 | -8.29 ± 1.1 |
| ACATTTGTTGATAACCAACGCCCCGTCGCCGGCACAAACGCCCGGTCGCCGGCTCACACCCATAAATTGATATTGCCTCTGATCATAGTCAGACCAACATTGCTACGACCCGTATTCGCACCGACAC | < -10 | -7.79 ± 0.73 |
| ACATTTGTTGATAACCAACGCCCCGTCGCCGGCCACCCATAAATTGATAATTATCAACAAACGCCCGGTCGCGGTACTCTGATCATAGTCAGACCAACATTGCTACGACCCGTATTCGCACCGACAC | -3.55 ± 0.48 | -7.3 ± 0.31 |
| ACATTTGTTGATAACCACATAAAATGATAATTACACCCATAAATTGATAATTATCACACCCATAAATTGATATTGCCTCTGATCATAGTCAGACCAACATTGCTACGACCCGTATTCGCACCGACAC | -1.28 ± 0.093 | -0.808 ± 0.095 |
| ACATTTGTTGATACAAAAATAAAATGATAATTACACCCATAAATTGATAATTATCACACCCATAAATTGATATTGCCTCTGATCATAGTCAGACCAACATTGCTACGACCCGTATTCGCACCGACAC | -0.268 ± 0.48 | -0.328 ± 0.18 |
| ACATTTGTTGATACAAAACGAAAATGATAATTACACCCATAAATTGATAATTATCACACCCATAAATTGATATTGCCTCTGATCATAGTCAGACCAACATTGCTACGACCCGTATTCGCACCGACAC | -6.65 ± 0.98 | -3.95 ± 0.13 |
| ACATTTGTTGATACAAAACGCCCCGTCGCCGGCACAAACGCCCGGTCGCCGGCGACACAAACGCCCGGTCGCGGTAAGAGGATCATAGTCAGACCAACATTGCTACGACCCGTATTCGCACCGACAC | -5.49 ± 0.46 | -7.52 ± 1 |
| ACATTTGTTGATACAAACATAAAATGATAATTACACACATAAATTGATAATTATCACACACATAAATTGATATTGCCTCTGATCATAGTCAGACCAACATTGCTACGACCCGTATTCGCACCGACAC | -0.182 ± 0.14 | -1.41 ± 0.22 |
| ACATTTGTTGATACAACAATAAAATGATAATTACACCAATAAATTGATAATTATCACACCAATAAATTGATATTGCCTCTGATCATAGTCAGACCAACATTGCTACGACCCGTATTCGCACCGACAC | -0.547 ± 0.67 | -0.726 ± 0.084 |
| ACATTTGTTGATACAACACGCAAATGATAATTACACCCATAAATTGATAATTATCACACCCATAAATTGATATTGCCTCTGATCATAGTCAGACCAACATTGCTACGACCCGTATTCGCACCGACAC | -4.89 ± 2.5 | -4.368 ± 0.0069 |
| ACATTTGTTGATACAACACTAAAATGATAATTACACCCATAAATTGATAATTATCACACCCATAAATTGATATTGCCTCTGATCATAGTCAGACCAACATTGCTACGACCCGTATTCGCACCGACAC | -2.04 ± 0.74 | -1.85 ± 0.15 |
| ACATTTGTTGATACAACCAAAAAATGATAATTACACCCAAAAATTGATAATTATCACACCCAAAAATTGATATTGCCTCTGATCATAGTCAGACCAACATTGCTACGACCCGTATTCGCACCGACAC | 0.0409 ± 0.087 | -0.669 ± 0.11 |
